This series is described as follows: protein stability index of a GFP-peptide fusion (yeast GPS) (PSI 1-4); higher = more stable; sorted into four equal gates, so the index is relative within each strain. The essentials:
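Tiled 17-residue peptides from yeast proteins were fused downstream of GFP on a plasmid that also expresses Cherry, and the pooled library was carried in yeast. Mid-log cultures grown in leucine-free medium were sorted into four equal gates by GFP/Cherry fluorescence ratio. Plasmids from each gate were PCR-amplified and Illumina-sequenced, and reads were assigned to strains by barcodes. Each peptide's protein stability index is the sum, over gates, of the gate's read frequency multiplied by its gate number.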

± gives the uncertainty stated by the source.

The results in this text go back to the supplement of paper PMC9732359.

On to DDSFSLLRIQMLLCVSY [PCI8], for which the protein stability index reads like this: (doa10∆) 2.1 ± 0.042; (pdr5∆) 2.05 ± 0.045; (san1∆) 2.08 ± 0.052; (ubr1∆) 2.42 ± 0.034.

In turn, PSLIQEEEEDTTTTANI [NUT1] showed a protein stability index (doa10∆) of 3.04 ± 0.11, a protein stability index (pdr5∆) of 3.12 ± 0.16, a protein stability index (san1∆) of 3.18 ± 0.12 and a protein stability index (ubr1∆) of 3.16 ± 0.19.

Take IKAFMDSTIGNSKVDMK [IRR1]: the protein stability index by setting is: (doa10∆) 2.57 ± 0.27; (pdr5∆) 2.45 ± 0.16; (ubr1∆) 2.05 ± 0.19.

As to EDFQKRQQKLLEDQQRQ [SWI1], the protein stability index is 3.21 ± 0.11 (doa10∆), 3.16 ± 0.051 (pdr5∆), 3.14 ± 0.057 (san1∆) and 3.19 ± 0.047 (ubr1∆).

Take DGEGKVDSISLHKIFYK [YCG1]: the protein stability index is 2.78 ± 0.087 (doa10∆), 3.24 ± 0.064 (pdr5∆), 3.13 ± 0.048 (san1∆) and 2.94 ± 0.063 (ubr1∆).

Take WKATYSNEFKCMSVITA [YGL100W/SEH1]: the protein stability index came to 1.87 ± 0.056 (doa10∆), 1.64 ± 0.051 (pdr5∆), 1.51 ± 0.073 (san1∆) and 2.07 ± 0.032 (ubr1∆).

For EMGYLIQISKLHYTPIE [RPC82], the protein stability index came out at 1.51 ± 0.063 (doa10∆), 2.06 ± 0.081 (pdr5∆), 1.95 ± 0.13 (san1∆) and 1.47 ± 0.055 (ubr1∆).

With KSVRILKNKAEYLKNCP [RPC40], the protein stability index is, setting by setting: (doa10∆) 3.13 ± 0.066; (pdr5∆) 3.19 ± 0.064; (san1∆) 3.12 ± 0.049; (ubr1∆) 3.15 ± 0.046.

Turning to NENFRLVYDVKGRFAVH [RPS4A], the protein stability index runs as follows: (doa10∆) 3.41 ± 0.14; (pdr5∆) 2.55 ± 0.17; (san1∆) 3.32 ± 0.12; (ubr1∆) 3.25 ± 0.13.

Consider SWSNGKITSPIRSVALN [RRP42], for which the protein stability index (doa10∆) was found to be 2.62 ± 0.11, the protein stability index (pdr5∆) turned out to be 2.62 ± 0.089, the protein stability index (san1∆) was 2.66 ± 0.091 and the protein stability index (ubr1∆) stood at 2.81 ± 0.073.

Regarding LTKAQKYLDQVLDHQRA [RPL17B], the protein stability index was 3 ± 0.096 (doa10∆), 2.96 ± 0.092 (pdr5∆), 3.03 ± 0.079 (san1∆) and 2.98 ± 0.042 (ubr1∆).

For LGHPDNYIPGNPLVTPA [COB], the protein stability index is, setting by setting: (doa10∆) 2.49 ± 0.11; (pdr5∆) 3.07 ± 0.13; (san1∆) 2.93 ± 0.075; (ubr1∆) 2.93 ± 0.068.

As to LALQRGATVFVNHLLLF [DPB4], the protein stability index (doa10∆) worked out at 1.42 ± 0.046, the protein stability index (pdr5∆) turned out to be 1.26 ± 0.036, the protein stability index (san1∆) was found to be 1.25 ± 0.083 and the protein stability index (ubr1∆) is 1.34 ± 0.039.

As for VDLLQFPWLNAIKYRPT [POP3], the protein stability index runs as follows: (doa10∆) 2.33 ± 0.07; (pdr5∆) 2.42 ± 0.091; (san1∆) 2.36 ± 0.15; (ubr1∆) 1.84 ± 0.11.

On to FGNIQKVVNFWLLHNGF [RPO21], for which the protein stability index reads like this: (doa10∆) 2.26 ± 0.18; (pdr5∆) 1.83 ± 0.099; (san1∆) 1.99 ± 0.19; (ubr1∆) 1.41 ± 0.073.

In the case of GTANNNSNTTNQNSSTG [YJL041W/NSP1], the protein stability index was found to be 3.19 ± 0.064 (doa10∆), 3.37 ± 0.075 (pdr5∆), 3.25 ± 0.042 (san1∆) and 3.09 ± 0.061 (ubr1∆).

For the sequence KKNKRALPNIENDIIKL [BRR2], the protein stability index turned out to be 3.09 ± 0.054 (doa10∆), 3.36 ± 0.062 (pdr5∆), 3.23 ± 0.04 (san1∆) and 3.34 ± 0.037 (ubr1∆).

As to KAEKKVELHGKRKLDIG [PRP8], the protein stability index runs as follows: (pdr5∆) 2.8 ± 0.17; (san1∆) 3.13 ± 0.16.

On to YTDELEEDVYLDPLARV [FAS2], for which the protein stability index worked out at 3.33 ± 0.095 (doa10∆), 3.32 ± 0.1 (pdr5∆), 3.54 ± 0.07 (san1∆) and 3.44 ± 0.053 (ubr1∆).

RPDITMYCRPAPSDFSE [GRR1] returned a protein stability index (doa10∆) of 2.16 ± 0.12, a protein stability index (pdr5∆) of 2.12 ± 0.15, a protein stability index (san1∆) of 2.97 ± 0.067 and a protein stability index (ubr1∆) of 2.17 ± 0.076.

On to VENGTTSIGIKCNDGVV [PRE10], for which the protein stability index reads like this: (doa10∆) 2.14 ± 0.11; (pdr5∆) 2.1 ± 0.089; (san1∆) 1.35 ± 0.21; (ubr1∆) 3.31 ± 0.22.

TTFEYIIKERALLSKVK [SNF2]: the protein stability index runs as follows: (doa10∆) 1.58 ± 0.046; (pdr5∆) 1.67 ± 0.048; (san1∆) 1.41 ± 0.071; (ubr1∆) 1.37 ± 0.036.

With LHQRTHKQVYPLRMETI [DSN1], the protein stability index reads like this: (doa10∆) 2.28 ± 0.06; (pdr5∆) 2.66 ± 0.042; (san1∆) 2.44 ± 0.048; (ubr1∆) 2.6 ± 0.039.

KPTSPFIDSICKLFDKI [SRB8]: the protein stability index worked out at 1.56 ± 0.04 (doa10∆), 1.93 ± 0.035 (pdr5∆), 1.56 ± 0.055 (san1∆) and 1.41 ± 0.034 (ubr1∆).

For YCDPNTQEIRPVNTGVL [RRP40], the protein stability index is, setting by setting: (doa10∆) 2.62 ± 0.055; (pdr5∆) 2.89 ± 0.05; (san1∆) 2.62 ± 0.052; (ubr1∆) 2.76 ± 0.069.

Consider STDELVGSPLTVSILQE [POP8], for which the protein stability index runs as follows: (doa10∆) 2.08 ± 0.084; (pdr5∆) 2.62 ± 0.11; (san1∆) 2 ± 0.1; (ubr1∆) 2.26 ± 0.084.
